± gives the standard deviation of the averaged measurements.
What follows are sequences tested on ATP (assay: switch fluorescence ratio, 500 uM ATP over buffer (Cy3 cluster intensity, sum of 5 cycles each) (fold (ratio)); higher = stronger signal-on switching upon ATP binding; sequences stand for … in TCGTCGGCAGCGTCAGATGTGTATAAGAGACAGTTTTTTTTTTTTTTTTTTTTTTTTT…TC). Conditions: aptamer strand: ATP DNA aptamer (quencher-CACCTGGGGGAGTATTGCGGAGGAAGG + anchor), 100 nM annealed; ATP concentration: 500 uM.
How it was run: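 Clusters with intensities outside 100-1000 RFU were excluded. The remaining Cy3-labelled switching-strand clusters on a modified Illumina MiSeq flow-cell had been annealed to 100 nM quencher-labelled ATP aptamer and imaged in selection buffer, then after 15 min with 500 uM ATP at 22 °C, for five cycles separated by NaOH stripping and re-annealing. The fluorescence ratio, averaged per switch-domain sequence, is each cluster's summed target-cycle Cy3 intensity over its summed buffer-cycle Cy3 intensity.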
Work on CTTAGAGCGG yielded a switch fluorescence ratio of 1.01 ± 0.022. CTTAGATAAA was tested, and the switch fluorescence ratio was 0.985 ± 0.026. Work on CTTAGATGGA yielded a switch fluorescence ratio of 0.978 ± 0.023. CTTAGCCGGG gave a switch fluorescence ratio of 0.981 ± 0.032. CTTAGCTAGT gave a switch fluorescence ratio of 1.09 ± 0.13. Sequence CTTAGGATAG has a switch fluorescence ratio of 0.996 ± 0.0029. CTTAGGCCAG was tested, and the switch fluorescence ratio was 0.998 ± 0.032. For CTTAGGGAGT, the switch fluorescence ratio was 1.006 ± 0.0028. CTTAGGGCTC gave a switch fluorescence ratio of 1.026 ± 0.0042. For CTTAGGGGTG, the switch fluorescence ratio was 0.973 ± 0.011. With CTTAGGGTT the switch fluorescence ratio was 0.997 ± 0.044. CTTAGTAGTT gave a switch fluorescence ratio of 1.01 ± 0.015. Work on CTTAGTGGCG yielded a switch fluorescence ratio of 0.9757 ± 0.0038. Sequence CTTAGTTAGC has a switch fluorescence ratio of 1.02 ± 0.013. With CTTATAACAG the switch fluorescence ratio was 1.01 ± 0.018. With CTTATAGCGC the switch fluorescence ratio was 1.007 ± 0.0066. Sequence CTTATCTGGG has a switch fluorescence ratio of 0.999 ± 0.041. CTTATGAGGG gave a switch fluorescence ratio of 0.99 ± 0.025. CTTATGGGGG gave a switch fluorescence ratio of 1.03 ± 0.046. With CTTATTCGAT the switch fluorescence ratio was 0.999 ± 0.012. With CTTATTGTTT the switch fluorescence ratio was 0.995 ± 0.069. CTTATTTGGT showed a switch fluorescence ratio of 0.992 ± 0.035. CTTCAAAAGG showed a switch fluorescence ratio of 1.68 ± 0.96. CTTCAGTTAC was tested, and the switch fluorescence ratio was 1.82 ± 0.19. Sequence CTTCATCTTT has a switch fluorescence ratio of 0.996 ± 0.018. Work on CTTCCCGCCG yielded a switch fluorescence ratio of 1.26 ± 0.057. In the case of CTTCCGGGGT, the switch fluorescence ratio is reported as 1.68 ± 0.1. CTTCCGTTTT showed a switch fluorescence ratio of 1.28 ± 0.042. In the case of CTTCGAAGTT, the switch fluorescence ratio is reported as 0.98 ± 0.045. Work on CTTCGGGCGA yielded a switch fluorescence ratio of 1.1 ± 0.023. CTTCGGGGGA was tested, and the switch fluorescence ratio was 0.992 ± 0.01. CTTCGGTAAC gave a switch fluorescence ratio of 2.175 ± 0.0072. Sequence CTTCTACCTG has a switch fluorescence ratio of 1.01 ± 0.035. For CTTCTCTTCA, the switch fluorescence ratio was 1.02 ± 0.03. Work on CTTCTGGAGG yielded a switch fluorescence ratio of 1.15 ± 0.028. CTTCTGGGCG gave a switch fluorescence ratio of 1.02 ± 0.032. For CTTGACAGA, the switch fluorescence ratio was 1.03 ± 0.024. With CTTGACGGTC the switch fluorescence ratio was 1.11 ± 0.1. Sequence CTTGACGGTT has a switch fluorescence ratio of 1.01 ± 0.092. Sequence CTTGAGATGT has a switch fluorescence ratio of 1.02 ± 0.044. CTTGAGTTAG gave a switch fluorescence ratio of 1.015 ± 0.0066. Work on CTTGATACAG yielded a switch fluorescence ratio of 1.037 ± 0.0026. CTTGATGTTG showed a switch fluorescence ratio of 1.01 ± 0.012. In the case of CTTGATTTGT, the switch fluorescence ratio is reported as 1.01 ± 0.036. Work on CTTGGAGGGG yielded a switch fluorescence ratio of 1.0187 ± 0.00015. In the case of CTTGGAGTTG, the switch fluorescence ratio is reported as 1.02 ± 0.07. Sequence CTTGGCATCT has a switch fluorescence ratio of 1.01 ± 0.033. For CTTGGCCGCG, the switch fluorescence ratio was 0.987 ± 0.011. For CTTGGGGAAT, the switch fluorescence ratio was 1.13 ± 0.24. CTTGGGGCGC gave a switch fluorescence ratio of 1.01 ± 0.049. With CTTGGGGCGG the switch fluorescence ratio was 0.962 ± 0.017. Sequence CTTGGGTGAA has a switch fluorescence ratio of 1.09 ± 0.19. CTTGGGTTCT showed a switch fluorescence ratio of 1 ± 0.012. In the case of CTTGTAATGT, the switch fluorescence ratio is reported as 1.02 ± 0.011. CTTGTCTTAA gave a switch fluorescence ratio of 1.02 ± 0.029. CTTGTGCTTG gave a switch fluorescence ratio of 1.0058 ± 0.00065. CTTGTGGTGG showed a switch fluorescence ratio of 1.006 ± 0.0089. CTTGTTGAGG gave a switch fluorescence ratio of 0.988 ± 0.012. CTTGTTGTTT gave a switch fluorescence ratio of 1.03 ± 0.15. For CTTGTTTCTC, the switch fluorescence ratio was 0.971 ± 0.028. CTTTACTCAC was tested, and the switch fluorescence ratio was 1.27 ± 0.019. Work on CTTTAGAATC yielded a switch fluorescence ratio of 0.941 ± 0.021. With CTTTAGATGT the switch fluorescence ratio was 0.98 ± 0.034. For CTTTAGTCAG, the switch fluorescence ratio was 1.01 ± 0.016. Work on CTTTATATGG yielded a switch fluorescence ratio of 0.96 ± 0.046. For CTTTATGGGA, the switch fluorescence ratio was 0.988 ± 0.031. Work on CTTTCGAGAG yielded a switch fluorescence ratio of 1 ± 0.025. For CTTTCGGGGG, the switch fluorescence ratio was 1.14 ± 0.2. In the case of CTTTGACGGG, the switch fluorescence ratio is reported as 0.989 ± 0.013. CTTTGATTAG showed a switch fluorescence ratio of 0.9838 ± 0.0061. With CTTTGCTTTT the switch fluorescence ratio was 0.968 ± 0.023. CTTTGGAAAT was tested, and the switch fluorescence ratio was 0.9997 ± 0.0023. CTTTGGAGTG gave a switch fluorescence ratio of 1.23 ± 0.38. In the case of CTTTTAGTAG, the switch fluorescence ratio is reported as 0.974 ± 0.015. CTTTTATAGT gave a switch fluorescence ratio of 0.984 ± 0.02. CTTTTTAACA gave a switch fluorescence ratio of 0.9742 ± 0.0062. Sequence CTTTTTGGGG has a switch fluorescence ratio of 0.981 ± 0.029. Sequence GAAAAAAGTA has a switch fluorescence ratio of 1.01 ± 0.031. In the case of GAAAAAAGTG, the switch fluorescence ratio is reported as 0.994 ± 0.047. Sequence GAAAAAATTT has a switch fluorescence ratio of 1.031 ± 0.0019. GAAAAAGAGA showed a switch fluorescence ratio of 0.9736 ± 0.0016. For GAAAAAGCGT, the switch fluorescence ratio was 1.07 ± 0.03. GAAAAATTAC showed a switch fluorescence ratio of 1.49 ± 0.75. GAAAAGGGTT was tested, and the switch fluorescence ratio was 0.978 ± 0.032. GAAAAGTTTT was tested, and the switch fluorescence ratio was 0.969 ± 0.018. For GAAAATAACG, the switch fluorescence ratio was 1.11 ± 0.15. For GAAAATTGGT, the switch fluorescence ratio was 0.997 ± 0.023. GAAACTGCTG was tested, and the switch fluorescence ratio was 1.01 ± 0.029. Sequence GAAAGAAAAA has a switch fluorescence ratio of 1.09 ± 0.043. In the case of GAAAGAGTGA, the switch fluorescence ratio is reported as 1.01 ± 0.016. GAAAGGCGGG was tested, and the switch fluorescence ratio was 0.985 ± 0.0041. With GAAAGGGTGT the switch fluorescence ratio was 1.03 ± 0.026. In the case of GAAAGGTCGG, the switch fluorescence ratio is reported as 1.21 ± 0.27. In the case of GAAAGTAAGC, the switch fluorescence ratio is reported as 0.993 ± 0.012. For GAAAGTAATT, the switch fluorescence ratio was 0.996 ± 0.051. Work on GAAAGTAGGA yielded a switch fluorescence ratio of 1.02 ± 0.029. With GAAATACTTT the switch fluorescence ratio was 1.03 ± 0.014. GAAATCAGCA was tested, and the switch fluorescence ratio was 1.03 ± 0.023. GAAATCGGTG gave a switch fluorescence ratio of 0.995 ± 0.036. Work on GAAATGTACG yielded a switch fluorescence ratio of 1.04 ± 0.021. In the case of GAAATGTAGG, the switch fluorescence ratio is reported as 0.995 ± 0.034. With GAAATTCGGG the switch fluorescence ratio was 0.978 ± 0.025. With GAAATTCTAT the switch fluorescence ratio was 0.985 ± 0.033. GAAATTGATG showed a switch fluorescence ratio of 0.983 ± 0.017. Sequence GAAATTTGG has a switch fluorescence ratio of 1.01 ± 0.061. GAAATTTTTT showed a switch fluorescence ratio of 1 ± 0.034. For GAACAAAGGG, the switch fluorescence ratio was 0.988 ± 0.017. GAACAATGGG showed a switch fluorescence ratio of 0.977 ± 0.03. Sequence GAACACGGTA has a switch fluorescence ratio of 1.204 ± 0.0023. Sequence GAACATCGGC has a switch fluorescence ratio of 1.036 ± 0.0022. Sequence GAACCGGGTT has a switch fluorescence ratio of 0.9987 ± 0.0079. For GAACCGTAAA, the switch fluorescence ratio was 1.128 ± 0.0073. For GAACCTCGTG, the switch fluorescence ratio was 1.03 ± 0.035. Sequence GAACGATGTT has a switch fluorescence ratio of 0.9787 ± 0.0032. Sequence GAACGCCGGC has a switch fluorescence ratio of 0.939 ± 0.034. In the case of GAACGGTATG, the switch fluorescence ratio is reported as 1.02 ± 0.051. GAACGGTGGG showed a switch fluorescence ratio of 0.976 ± 0.019. For GAACGTCTGC, the switch fluorescence ratio was 1.08 ± 0.011. Sequence GAACGTGGGT has a switch fluorescence ratio of 0.987 ± 0.052. GAACGTTTGG showed a switch fluorescence ratio of 1.04 ± 0.074. Work on GAACTAGGGC yielded a switch fluorescence ratio of 1.02 ± 0.1. GAACTCGGCT gave a switch fluorescence ratio of 0.959 ± 0.12. GAACTCTTGT was tested, and the switch fluorescence ratio was 1.05 ± 0.096. Work on GAACTGCGGA yielded a switch fluorescence ratio of 1.01 ± 0.019. Work on GAAGAAAACA yielded a switch fluorescence ratio of 0.955 ± 0.089. In the case of GAAGAACGGG, the switch fluorescence ratio is reported as 1.006 ± 0.0036. GAAGATAGGG gave a switch fluorescence ratio of 0.998 ± 0.011. For GAAGATGAAA, the switch fluorescence ratio was 0.984 ± 0.017. In the case of GAAGATTTGG, the switch fluorescence ratio is reported as 0.981 ± 0.04. GAAGCAACCG showed a switch fluorescence ratio of 1.384 ± 0.01. GAAGCATTTT gave a switch fluorescence ratio of 1.07 ± 0.045. GAAGCGACTC was tested, and the switch fluorescence ratio was 2.42 ± 0.03. With GAAGCGGTGG the switch fluorescence ratio was 0.954 ± 0.09. GAAGCTTATA showed a switch fluorescence ratio of 1.251 ± 0.0019. Sequence GAAGGAAGAG has a switch fluorescence ratio of 1.03 ± 0.025. GAAGGAAGTT gave a switch fluorescence ratio of 1.01 ± 0.041. For GAAGGACGGG, the switch fluorescence ratio was 1 ± 0.025. With GAAGGAGGGC the switch fluorescence ratio was 0.995 ± 0.085. In the case of GAAGGCACGG, the switch fluorescence ratio is reported as 1.04 ± 0.047. With GAAGGCACTA the switch fluorescence ratio was 1.03 ± 0.045. With GAAGGCATGG the switch fluorescence ratio was 1.03 ± 0.015. Sequence GAAGGCCATG has a switch fluorescence ratio of 1.016 ± 0.0075. In the case of GAAGGCCTAG, the switch fluorescence ratio is reported as 0.9763 ± 0.0042. Sequence GAAGGCCTTG has a switch fluorescence ratio of 1.01 ± 0.025. With GAAGGCTCTG the switch fluorescence ratio was 0.9922 ± 0.0071. Work on GAAGGGAGTG yielded a switch fluorescence ratio of 0.986 ± 0.084. GAAGGGATGG gave a switch fluorescence ratio of 1.08 ± 0.15. With GAAGGGATTG the switch fluorescence ratio was 1.02 ± 0.041. GAAGGGCAAG was tested, and the switch fluorescence ratio was 1.02 ± 0.038. GAAGGGCTGG gave a switch fluorescence ratio of 0.972 ± 0.022. Sequence GAAGGGGAAT has a switch fluorescence ratio of 1.003 ± 0.0052. GAAGGGGTGA gave a switch fluorescence ratio of 1.03 ± 0.053. With GAAGGGTCTG the switch fluorescence ratio was 0.969 ± 0.012.

Reference: the supplement of paper PMC10126150
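Note: ATP exposure 15 min at 22 °C before imaging.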
